Test results: publication PMC10681739, “High-throughput data and modeling reveal insights into the mechanisms of cooperative DNA-binding by transcription factor proteins”

Target: T1, ETS1 (Homo sapiens, UniProt P14921)
T1 sequence: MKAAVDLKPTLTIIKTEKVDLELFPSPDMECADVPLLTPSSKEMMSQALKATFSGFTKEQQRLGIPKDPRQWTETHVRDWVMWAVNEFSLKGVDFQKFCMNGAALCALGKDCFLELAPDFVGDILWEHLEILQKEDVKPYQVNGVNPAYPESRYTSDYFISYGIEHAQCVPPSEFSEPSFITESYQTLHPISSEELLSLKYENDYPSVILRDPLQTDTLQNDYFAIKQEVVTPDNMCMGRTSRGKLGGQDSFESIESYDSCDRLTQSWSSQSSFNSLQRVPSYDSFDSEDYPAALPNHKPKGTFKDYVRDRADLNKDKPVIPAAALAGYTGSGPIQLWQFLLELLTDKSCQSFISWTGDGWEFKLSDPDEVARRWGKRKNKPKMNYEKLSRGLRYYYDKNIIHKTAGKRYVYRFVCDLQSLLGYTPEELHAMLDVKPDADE
Assay: gcPBM; 1 nM ETS1
Settings: tags: N-terminal GST (pDEST15), kept (PMC6008103); label: surface-attached array probe

B1: Table S2 B row 1285 (dsDNA)
DNA 1: TTAAACACGGAAGTGCATCGGTTGTTGTAGTTATTC
DNA 2: GAATAACTACAACAACCGATGCACTTCCGTGTTTAA
B1 was tested, and the binding signal was 2090 PBM fluorescence, median of replicate spots.

B2: Table S2 B row 1406 (dsDNA)
DNA 1: GCACACACACATCCTCCCGGCCCGGCCGCCGCCGCT
DNA 2: AGCGGCGGCGGCCGGGCCGGGAGGATGTGTGTGTGC
With B2 the binding signal was 2180 PBM fluorescence, median of replicate spots.

B3: Table S2 B row 2398 (dsDNA)
DNA 1: GCTTTGCAGTTTCCTCTATGGAACACCAGACACAGT
DNA 2: ACTGTGTCTGGTGTTCCATAGAGGAAACTGCAAAGC
With B3 the binding signal was 2540 PBM fluorescence, median of replicate spots.

B4: Table S2 B row 753 (dsDNA)
DNA 1: AGGGACTTCCGGTGACCAGAGCACTAGCGCCGTAAA
DNA 2: TTTACGGCGCTAGTGCTCTGGTCACCGGAAGTCCCT
B4 was tested, and the binding signal was 55700 PBM fluorescence, median of replicate spots.

B5: Table S2 B row 1838 (dsDNA)
DNA 1: GTACGTTTCCTCATTGACTGGCCAACGACTATCATG
DNA 2: CATGATAGTCGTTGGCCAGTCAATGAGGAAACGTAC
B5 was tested, and the binding signal was 2340 PBM fluorescence, median of replicate spots.

B6: Table S2 B row 4071 (dsDNA)
DNA 1: ATGGAAATGTCGTTAAGAACTTCCTCTTTTACTAGA
DNA 2: TCTAGTAAAAGAGGAAGTTCTTAACGACATTTCCAT
With B6 the binding signal was 2700 PBM fluorescence, median of replicate spots.

B7: Table S2 B row 1905 (dsDNA)
DNA 1: ACTTCCAGGAAGCCCCATAGTCCAGAAACCTACACA
DNA 2: TGTGTAGGTTTCTGGACTATGGGGCTTCCTGGAAGT
With B7 the binding signal was 2110 PBM fluorescence, median of replicate spots.

B8: Table S2 B row 1261 (dsDNA)
DNA 1: ACTCCAGAGGAAGTGGCAAGACGAGCGCGGCAACGG
DNA 2: CCGTTGCCGCGCTCGTCTTGCCACTTCCTCTGGAGT
With B8 the binding signal was 2240 PBM fluorescence, median of replicate spots.

B9: Table S2 B row 528 (dsDNA)
DNA 1: CGAACTACATCCTCTGAGGTGTAGCTTTTTGGCCTG
DNA 2: CAGGCCAAAAAGCTACACCTCAGAGGATGTAGTTCG
B9 was tested, and the binding signal was 2040 PBM fluorescence, median of replicate spots.

B10: Table S2 B row 269 (dsDNA)
DNA 1: AGAAAAGGAAATGGTGGGCTGCACACCCCAGCTCAC
DNA 2: GTGAGCTGGGGTGTGCAGCCCACCATTTCCTTTTCT
For B10, the binding signal was 1890 PBM fluorescence, median of replicate spots.

B11: Table S2 B row 2632 (dsDNA)
DNA 1: TACGTCACTTCCGGGCCGCCGTCCTGCAGGCAAGGG
DNA 2: CCCTTGCCTGCAGGACGGCGGCCCGGAAGTGACGTA
With B11 the binding signal was 21800 PBM fluorescence, median of replicate spots.

B12: Table S2 B row 1694 (dsDNA)
DNA 1: CCCTTCCTGAGGGCAAGGCGAGGGCACCTACAGCCT
DNA 2: AGGCTGTAGGTGCCCTCGCCTTGCCCTCAGGAAGGG
In the case of B12, the binding signal is reported as 1830 PBM fluorescence, median of replicate spots.

B13: Table S2 B row 1649 (dsDNA)
DNA 1: CCCCCACATCCTGTTTGGTTAGTGGGACACCTCAAC
DNA 2: GTTGAGGTGTCCCACTAACCAAACAGGATGTGGGGG
With B13 the binding signal was 23400 PBM fluorescence, median of replicate spots.

B14: Table S2 B row 1696 (dsDNA)
DNA 1: CTCATCAGTCATCCGGCTGGACTGCAGGAGCTCTCC
DNA 2: GGAGAGCTCCTGCAGTCCAGCCGGATGACTGATGAG
With B14 the binding signal was 1700 PBM fluorescence, median of replicate spots.

B15: Table S2 B row 2614 (dsDNA)
DNA 1: GGCTTCCGCGCCTGCAGAACTACAGCTCCCAGAAGG
DNA 2: CCTTCTGGGAGCTGTAGTTCTGCAGGCGCGGAAGCC
With B15 the binding signal was 2000 PBM fluorescence, median of replicate spots.

B16: Table S2 B row 618 (dsDNA)
DNA 1: GCGCAAGGATCCGGTTTGTTCTGGTGTGGGGAGGGG
DNA 2: CCCCTCCCCACACCAGAACAAACCGGATCCTTGCGC
For B16, the binding signal was 2310 PBM fluorescence, median of replicate spots.

B17: Table S2 B row 56 (dsDNA)
DNA 1: CAGAGAAACAGGAAGAACAGTGCTTTCAACTGAAAT
DNA 2: ATTTCAGTTGAAAGCACTGTTCTTCCTGTTTCTCTG
B17 was tested, and the binding signal was 2500 PBM fluorescence, median of replicate spots.

B18: Table S2 B row 606 (dsDNA)
DNA 1: TCCGGAAGTCGGAGGAACACCCCAGCCGGCGCAGCC
DNA 2: GGCTGCGCCGGCTGGGGTGTTCCTCCGACTTCCGGA
In the case of B18, the binding signal is reported as 2610 PBM fluorescence, median of replicate spots.

B19: Table S2 B row 992 (dsDNA)
DNA 1: TATCGACAAAAGTTCCGGCCCGCGGCAGCGGAGGGA
DNA 2: TCCCTCCGCTGCCGCGGGCCGGAACTTTTGTCGATA
With B19 the binding signal was 1930 PBM fluorescence, median of replicate spots.

B20: Table S2 B row 3568 (dsDNA)
DNA 1: GAACCCCAAGTTCCGGCTGGCACTGCGCCGGAGCCT
DNA 2: AGGCTCCGGCGCAGTGCCAGCCGGAACTTGGGGTTC
For B20, the binding signal was 2450 PBM fluorescence, median of replicate spots.

B21: Table S2 B row 3693 (dsDNA)
DNA 1: ACCAAAACACATCCTGGGGCCCCTCACAATTAGTGA
DNA 2: TCACTAATTGTGAGGGGCCCCAGGATGTGTTTTGGT
For B21, the binding signal was 2280 PBM fluorescence, median of replicate spots.

B22: Table S2 B row 3076 (dsDNA)
DNA 1: AGGCCTCGCTTCCTCTCCTGAGCACACCCTGCAGCT
DNA 2: AGCTGCAGGGTGTGCTCAGGAGAGGAAGCGAGGCCT
For B22, the binding signal was 2200 PBM fluorescence, median of replicate spots.

B23: Table S2 B row 2482 (dsDNA)
DNA 1: TGCGACGGAAGCAGGAACTTGCTAACTACAAAACCC
DNA 2: GGGTTTTGTAGTTAGCAAGTTCCTGCTTCCGTCGCA
With B23 the binding signal was 1960 PBM fluorescence, median of replicate spots.

B24: Table S2 B row 1819 (dsDNA)
DNA 1: CCGATTTCCCCGGACGTGGTGAGACGGCGCTTCGTC
DNA 2: GACGAAGCGCCGTCTCACCACGTCCGGGGAAATCGG
For B24, the binding signal was 1790 PBM fluorescence, median of replicate spots.

B25: Table S2 B row 591 (dsDNA)
DNA 1: CACCTCCTACTTCCCCCCGCTGATAACTACCAACCC
DNA 2: GGGTTGGTAGTTATCAGCGGGGGGAAGTAGGAGGTG
In the case of B25, the binding signal is reported as 1740 PBM fluorescence, median of replicate spots.

B26: Table S2 B row 2348 (dsDNA)
DNA 1: CAAAAGTGCTTCCTCTCGAGGGGTTGTAGTTCTTAC
DNA 2: GTAAGAACTACAACCCCTCGAGAGGAAGCACTTTTG
B26 was tested, and the binding signal was 1960 PBM fluorescence, median of replicate spots.

B27: Table S2 B row 3457 (dsDNA)
DNA 1: CCACTGCCGGAAGGGGAACTCTGGGGGTGCGCGAGT
DNA 2: ACTCGCGCACCCCCAGAGTTCCCCTTCCGGCAGTGG
In the case of B27, the binding signal is reported as 2580 PBM fluorescence, median of replicate spots.

B28: Table S2 B row 3942 (dsDNA)
DNA 1: GAAATTTCCGCTTTCTTTCTGCAGCAGGAACCTCGG
DNA 2: CCGAGGTTCCTGCTGCAGAAAGAAAGCGGAAATTTC
B28 was tested, and the binding signal was 21200 PBM fluorescence, median of replicate spots.

B29: Table S2 B row 1511 (dsDNA)
DNA 1: GCACCGTGGCACTTCCGCGAGCGCCGCTGGCCCTGC
DNA 2: GCAGGGCCAGCGGCGCTCGCGGAAGTGCCACGGTGC
In the case of B29, the binding signal is reported as 2410 PBM fluorescence, median of replicate spots.

B30: Table S2 B row 1755 (dsDNA)
DNA 1: CAGAAAGAGGAAATGATGCGAGTCCACACCGAAGGC
DNA 2: GCCTTCGGTGTGGACTCGCATCATTTCCTCTTTCTG
With B30 the binding signal was 2640 PBM fluorescence, median of replicate spots.

B31: Table S2 B row 3748 (dsDNA)
DNA 1: GATTCATATCCTCCTCTATGCAACGACAGCATCTTC
DNA 2: GAAGATGCTGTCGTTGCATAGAGGAGGATATGAATC
B31 was tested, and the binding signal was 2160 PBM fluorescence, median of replicate spots.

B32: Table S2 B row 1848 (dsDNA)
DNA 1: TCCCGGGGAGGAAGTGGCGAGAATTCGGGGGTGGGC
DNA 2: GCCCACCCCCGAATTCTCGCCACTTCCTCCCCGGGA
For B32, the binding signal was 2460 PBM fluorescence, median of replicate spots.
